Tests used:
I53_dn5B trimer = target: T1, I53_dn5B trimer; test: nanoparticle assembly grade, Table 3
T1 chain: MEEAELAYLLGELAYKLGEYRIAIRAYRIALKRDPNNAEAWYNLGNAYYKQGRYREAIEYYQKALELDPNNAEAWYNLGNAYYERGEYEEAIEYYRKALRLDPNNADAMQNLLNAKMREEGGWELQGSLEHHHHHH

I53_dn5B_2gly trimer = target: T2, I53_dn5B_2gly trimer (N-linked glycans at PNGS 32-YDNLT-36 and 89-NAT-91); test: in vitro nanoparticle assembly, SEC and SDS-PAGE
T2 chain: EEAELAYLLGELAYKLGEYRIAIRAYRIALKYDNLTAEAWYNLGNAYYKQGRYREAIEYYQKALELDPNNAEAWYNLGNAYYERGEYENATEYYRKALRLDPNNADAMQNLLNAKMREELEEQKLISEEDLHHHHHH

B1: I53_dn5A_2gly pentamer (designed binder)
chain: KYDGSKLRIGILHARGNAEIILELVLGALKRLQEFGVKRENIIIETVPGSFELPYGSKLFVEKQKRLGKPLDAIIPIGVLIRGNDTHFDYIADSTTHQLMKLNFELGIPVIFGVLTTNSTEQAEERAGTKAGNHGEDWGAAAVEMATKFNLEEQKLISEEDLHHHHHH
B1: binds (I53_dn5B trimer); binds (I53_dn5B_2gly trimer).

— patent publication US20240042018A1 (University of Washington, published 2024)
